# Patent US20240309087A1 (SHANGHAI JUNSHI BIOSCIENCES, published 2024)
# Substitutions are numbered along the chain they refer to.
# T1: human CD112R on Jurkat CD112R effector cells (human, UniProt Q6DKI7 1-326)
# T1 sequence (looked up): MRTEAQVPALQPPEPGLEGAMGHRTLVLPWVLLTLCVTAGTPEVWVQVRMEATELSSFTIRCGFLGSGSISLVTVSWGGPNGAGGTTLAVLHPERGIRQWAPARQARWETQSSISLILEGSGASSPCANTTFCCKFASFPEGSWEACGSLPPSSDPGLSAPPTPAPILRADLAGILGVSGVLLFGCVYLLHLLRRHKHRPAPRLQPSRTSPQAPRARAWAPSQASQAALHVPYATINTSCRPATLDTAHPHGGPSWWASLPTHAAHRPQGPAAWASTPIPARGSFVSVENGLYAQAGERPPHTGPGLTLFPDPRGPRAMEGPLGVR
# T2: hCD112R mFC recombinant protein (human; murine, UniProt Q6DKI7 41-160)
# T2 construct: range 41-160; expressed in 293E cells; also called hCD112R ECD mFC; hCD112R-ECD-mFC; not shown: murine IgG2a Fc domain (MX2-mFc vector)
# T2 sequence (looked up): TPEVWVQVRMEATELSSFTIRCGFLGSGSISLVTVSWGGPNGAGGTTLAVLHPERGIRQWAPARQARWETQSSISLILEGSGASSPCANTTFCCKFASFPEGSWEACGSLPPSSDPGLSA
# B1: Hu2 (antibody, IgG4, V domains shown)
# VH: EVQLVESGGGLVQPGGSLRLSCAASGFTFSSYHMSWVRQAPGKGLELVAAINSNDINTYYLDTVKGRFTISRDIAKNSLYLQMNSLRAEDTAVYYCARHEDYYGFAMDYWGQGTLVTVSS
# VL: AIQMTQSPSSLSASVGDRVTITCKASQSVTNDVAWYQQKPGKAPKLLIYYVSNHYTGVPSRFSGSGSGTDFTLTISSLQPEDFATYFCQQAYRSPWTFGQGTKLEIK
# notes: humanized IgG4; also called Hu-02
# B2: Hu5 (antibody, IgG4, V domains shown)
# VH: B1 VH
# VL: B1 VL with A1D, T30S, H54R, Y55F
# notes: humanized IgG4; also called Hu-05
# B3: Hu8 (antibody, IgG4, V domains shown)
# VH: B1 VH with Q13K, A49S
# VL: B1 VL
# notes: humanized IgG4; also called Hu-08
# B4: Hu11 (antibody, IgG4, V domains shown)
# VH: B1 VH with Q13K, A49S
# VL: B1 VL with A1D, T30S, H54R, Y55F
# notes: humanized IgG4
# B5: Hu14 (antibody, IgG4, V domains shown)
# VH: EVQLVESGGGLVKPGGSLRLSCAASGFTFSSYHMSWVRQAPGKGLELVSAISRDGDSTYYPDTVKGRFTISRDNAKNSLYLQMNSLRAEDTAVYYCSRHEDYFGFAMDSWGQGTLVTVSS
# VL: B1 VL
# notes: humanized IgG4
# B6: Hu20 (antibody, IgG4, V domains shown)
# VH: B5 VH with N74D, K76E
# VL: B1 VL
# notes: humanized IgG4
# B7: Hu26 (antibody, IgG4, V domains shown)
# VH: B5 VH with K13Q, S49A
# VL: B1 VL
# notes: humanized IgG4
# B8: Hu53 (antibody, IgG4, V domains shown)
# VH: B1 VH with Q13K, A49S, D55G, I74N
# VL: B1 VL with A1D, T30S, H54R, Y55F
# notes: humanized IgG4
# B9: Hu56 (antibody, IgG4, V domains shown)
# VH: B1 VH with V37I, D55G, I74N
# VL: B1 VL
# notes: humanized IgG4
# Target: T1, human CD112R on Jurkat CD112R effector …
# Experiment: cell-based or functional assay
Binder,"EC50, CD112R/CD112 reporter [µg/mL]","Relative activity (%), EC50 COM701/EC50 antibody [%]"
B1,0.0577,110
B2,0.0461,148
B3,0.0633,110
B4,0.0529,148
B5,0.0225,215
B6,0.038,135
B7,0.0353,183
B8,0.023,314
B9,0.0243,276

# Target: T2, hCD112R mFC recombinant protein
# Experiment: ELISA, coated hCD112R-ECD-mFC
# Description: (§1) A plate was coated with a hCD112R-ECD-mFC protein (1.5 μg/mL) at a fixed concentration, and the humanized anti-CD112R antibodies diluted in a gradient (initial concentration: 1 μg/mL, 2.5-fold gradient dilution, 12 concentration gradients in total) were added to bind to the antigen. HRP-conjugated goat anti-human antibody IgG (Fc specific) (Sigma, A0170) was subjected to a 5000-fold dilution and used as a detection antibody for detection. The color development was performed with 0.1 mg/mL TMB, and finally stopped with 2 M hydrochloric acid. The plate was read at 420 nm/620 nm. EC₅₀ was obtained by fitting with a four-parameter logistic regression (4PL) model. The […] were COM701 (anti-CD112R antibody, Compugen, obtained by expression and purification according to the sequences in US20180280506A1) and the anti-KLH hu-IgG4 antibody.
row,Binder,EC50 [µg/mL]
1,B1,0.00303
2,B2,0.00275
3,B3,0.00309
4,B4,0.00275
5,B5,0.00443
6,B6,0.00518
7,B7,0.00351
8,B8,0.00541
9,B9,0.00475

# Target: T2, hCD112R mFC recombinant protein
# Experiment: FACS competition, hCD112R mFc on CHO CD112 cells
# Description: (§2) Cells CHO CD112 overexpressing human CD112 were co-incubated with a hCD112R mFc protein solution (5 μg/mL) prepared in a staining buffer (PBS+1% FBS), and the humanized anti-CD112R antibodies or the control antibodies at different concentrations (initial concentration: 100 μg/mL, 3-fold dilution, 10 concentration gradients) at 4° C. for 30 min. Unbound antibodies were then washed with a staining buffer and the cells were incubated with 1% (v/v) goat anti-mouse IgG Fc fluorescent secondary antibodies (Jackson ImmunoResearch) prepared in a staining buffer at 4° C. for 30 min in the dark. Finally, the cells were collected by using a flow cytometer (BD Canto II), and the fluorescent antibodies bound to the cell surface were detected. Raw data were analyzed by using FlowJo to obtain MFI values, and a four-parameter curve fitting was performed by using GraphPad Prism software to obtain IC₅₀ values. The positive control and the negative control were COM701 (anti-CD112R antibody, Compugen, obtained by expression and purification according to the sequences in US20180280506A1) and the anti-KLH hu-IgG4 antibody, respectively.
row,Binder,IC50 [µg/mL]
1,B1,4.28
2,B2,4.41
3,B3,4.62
4,B4,4.34
5,B5,2.21
6,B6,2.25
7,B7,2.47
8,B8,3.18
9,B9,3.39

# Target: T2, hCD112R mFC recombinant protein
# Experiment: ELISA, coated hCD112R-ECD-mFC; EC50 COM701/EC50 antibody
# Description: as §1
row,Binder,Relative activity (%)
1,B1,141
2,B2,155
3,B3,127
4,B4,143
5,B5,129
6,B6,128
7,B7,190
8,B8,169
9,B9,193

# Target: T2, hCD112R mFC recombinant protein
# Experiment: FACS competition, hCD112R mFc on CHO CD112 cells; IC50 COM701/IC50 antibody
# Description: as §2
row,Binder,Relative activity (%)
1,B1,92.9
2,B2,90.2
3,B3,86.1
4,B4,91.6
5,B5,162
6,B6,159
7,B7,145
8,B8,75.7
9,B9,71
